From patent US20190002529A1 (GOVERNMENT OF THE UNITED STATES OF AMERICA AS REPRESENTED …, published 2019)

Target: T1, Eptatretus stoutii FIL-Alpha including a polyhistidine tag (Eptatretus stoutii, UniProt Q90501 1-643)
T1 construct: Recombinant protein expressed in E. coli; also called alpha protein; hagfish intermediate filament alpha protein
T1 sequence: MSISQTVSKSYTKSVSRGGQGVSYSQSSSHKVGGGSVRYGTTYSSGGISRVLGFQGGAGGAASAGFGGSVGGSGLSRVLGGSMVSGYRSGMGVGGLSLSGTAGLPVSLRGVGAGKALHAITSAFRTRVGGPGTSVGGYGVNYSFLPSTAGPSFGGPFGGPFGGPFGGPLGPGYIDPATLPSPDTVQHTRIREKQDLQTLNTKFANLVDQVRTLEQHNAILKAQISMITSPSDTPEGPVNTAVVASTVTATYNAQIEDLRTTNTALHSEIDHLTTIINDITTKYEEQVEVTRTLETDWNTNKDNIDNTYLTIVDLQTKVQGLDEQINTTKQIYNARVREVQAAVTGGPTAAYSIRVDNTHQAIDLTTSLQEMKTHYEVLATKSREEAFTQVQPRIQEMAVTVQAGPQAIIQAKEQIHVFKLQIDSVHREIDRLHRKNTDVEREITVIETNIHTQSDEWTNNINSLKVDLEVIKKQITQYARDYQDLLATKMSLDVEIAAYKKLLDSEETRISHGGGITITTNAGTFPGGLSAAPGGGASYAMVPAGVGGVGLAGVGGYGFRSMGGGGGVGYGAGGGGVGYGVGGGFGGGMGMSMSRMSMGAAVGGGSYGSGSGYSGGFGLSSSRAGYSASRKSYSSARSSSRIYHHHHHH
Experiment: filament/thread self-assembly of refolded recombinant His-tagged proteins; filaments observed by microscopy

B1: Eptatretus stoutii FIL-Gamma including a polyhistidine tag (other)
chain: MASHSSVSYRSVRTGGTSAMIGSSGYGGSSSSRAMGLGMGAAGLSMGGGSFRVGSAGIGGMGISSGIGGMGISSRAGGMSAYGGAASGGAGGFVSGGVPMLGYGGGAGGFIGGVSPGIMASPAFTAGRAITSAGMSGVVGTLGPAGGMVPSLVSRDEVKNILGTLNQRLASYVDKVRQLTIENETMEEELKNLTGGVPMSPDSTVNLENVETQVTEMLTEVSNLTLERVRLEIDVDHLRATADEIKSKYEFELGVRMQLETDIANMKRDLEAANDMRVDLDSKFNFLTEELTFQRKTQMEELNTLKQQFGRLGPVQTSVIELDNVKSVNLTDALNVMREEYQQVVTKNVQEAETYCKMQIDQIQGISTQTTEQISILDKEINTLEKELQPLNVEYQRLLTTYQTLGDRLTDLQNRESIDLVQFQNTYTRYEQEIEGNQVDLQRQLVTYQQLLDVKTALDAEIATYKKLLEGQELMVRTAMADDFAHATVVRSGTLGGASSSSVGYGASSTTLGAISGGYSTGGGASYSAGAGGASYSAGAGGASYGVGGGYSGGSSAMMEGSSSGGHSMYSSSSMKRSSSKSASASAGGYGTSGHDSTIILQQHHHHHH
notes: also called gamma protein; hagfish intermediate filament gamma protein
B1: binds.
